In the assay the target is CV30 (human). The assay is described as follows: BLI.

For “SARS-CoV-2 receptor binding domain (from UniProt P0DTC2 319-591) (domain or fragment)”, the Kd is 3.6 nM.
